Paper PMC4008586 (PLoS ONE, 2014)

B1: hMcl-1(171–327), wild type (domain or fragment, human, UniProt Q07820 171-327, looked up)
chain: EDELYRQSLEIISRYLREQATGAKDTKPMGRSGATSRKALETLRRVGDGVQRNHETAFQGMLRKLDIKNEDDVKSLSRVMIHVFSDGVTNWGRIVTLISFGAFVAKHLKTINQESCIEPLAESITDVLVRTKRDWLVKQRGWDGFVEFFHVEDLEGG
notes: also called myeloid cell leukemia-1
B2: hMcl-1(171–327) Cys 286 → Ser (domain or fragment, human, UniProt Q07820 171-327, looked up)
chain: EDELYRQSLEIISRYLREQATGAKDTKPMGRSGATSRKALETLRRVGDGVQRNHETAFQGMLRKLDIKNEDDVKSLSRVMIHVFSDGVTNWGRIVTLISFGAFVAKHLKTINQESSIEPLAESITDVLVRTKRDWLVKQRGWDGFVEFFHVEDLEGG
notes: seven nonnative residues LHHHHHH at the C-terminus; The NMR samples were uniformly 13C,15N-labeled (or U-15N, 5% 13C); also called mutant; mutant Cys 286 → Ser

Target: Bim-BH3 peptide
Experiment: SPR; Biacore assay; who was immobilised and the conditions are not stated
Conditions: both partners purified

Binder | Kd [pM]
B1 | ~60
B2 | ~60
